Where two headings read alike, the source gives them in different places.
T1: interleukin 18 binding protein (IL-18BP) (UniProt O95998 31-194)
T1 sequence (looked up): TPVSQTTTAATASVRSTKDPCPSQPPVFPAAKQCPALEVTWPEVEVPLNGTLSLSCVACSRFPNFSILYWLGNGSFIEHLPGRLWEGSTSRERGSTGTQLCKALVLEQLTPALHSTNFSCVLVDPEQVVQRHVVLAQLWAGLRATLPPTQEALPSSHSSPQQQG

T2: IL-18 receptor (IL-18Rα and IL-18Rβ) (UniProt Q13478 19-541; O95256 20-599, limits assumed)
T2 sequence (looked up) 1: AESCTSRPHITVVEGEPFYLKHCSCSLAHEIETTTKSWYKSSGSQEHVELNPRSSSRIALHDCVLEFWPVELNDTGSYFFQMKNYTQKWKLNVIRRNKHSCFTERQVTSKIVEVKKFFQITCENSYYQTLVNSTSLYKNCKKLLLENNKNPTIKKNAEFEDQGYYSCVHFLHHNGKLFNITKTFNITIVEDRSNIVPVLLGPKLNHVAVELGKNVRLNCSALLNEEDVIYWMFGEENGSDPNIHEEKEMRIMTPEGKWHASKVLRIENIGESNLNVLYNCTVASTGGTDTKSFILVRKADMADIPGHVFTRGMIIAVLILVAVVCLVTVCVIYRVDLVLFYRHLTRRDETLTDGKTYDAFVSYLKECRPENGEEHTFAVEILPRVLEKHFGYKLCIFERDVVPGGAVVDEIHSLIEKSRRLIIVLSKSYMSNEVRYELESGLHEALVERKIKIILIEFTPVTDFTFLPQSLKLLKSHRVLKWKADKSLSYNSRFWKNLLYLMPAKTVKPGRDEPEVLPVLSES
T2 sequence (looked up) 2: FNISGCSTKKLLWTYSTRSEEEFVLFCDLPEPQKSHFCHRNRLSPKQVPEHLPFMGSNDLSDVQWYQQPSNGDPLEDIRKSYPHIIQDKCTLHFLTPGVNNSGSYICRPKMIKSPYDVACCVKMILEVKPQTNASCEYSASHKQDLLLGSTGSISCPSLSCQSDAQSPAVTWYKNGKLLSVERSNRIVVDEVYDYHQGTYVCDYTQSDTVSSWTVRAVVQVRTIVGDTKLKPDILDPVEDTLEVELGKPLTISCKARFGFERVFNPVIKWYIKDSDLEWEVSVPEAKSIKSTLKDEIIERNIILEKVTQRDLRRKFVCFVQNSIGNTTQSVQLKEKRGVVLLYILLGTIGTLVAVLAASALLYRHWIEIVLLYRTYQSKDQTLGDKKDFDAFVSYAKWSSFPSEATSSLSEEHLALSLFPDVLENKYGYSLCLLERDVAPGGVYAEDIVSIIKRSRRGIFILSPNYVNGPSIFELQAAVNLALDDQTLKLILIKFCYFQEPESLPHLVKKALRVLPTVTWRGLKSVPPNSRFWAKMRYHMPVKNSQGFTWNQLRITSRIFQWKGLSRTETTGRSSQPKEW

B1: IL-18 variant G3D, E6G, K53G, D54A, T63S, N91Y, R104Q (ligand)
chain: YFDKLGSKLSVIRNLNDQVLFIDQGNRPLFEDMTDSDMRDNAPRTIFIISMYGASQPRGMAVSISVKSEKISTLSSENKIISFKEMNPPDYIKDTKSDIIFFQQSVPGHDNKMQFESSSYEGYFLASEKERDLFKLILKKEDELGDRSIMFTVQNED
B2: IL-18 variant G3Q, E6N (ligand)
chain: YFQKLNSKLSVIRNLNDQVLFIDQGNRPLFEDMTDSDMRDNAPRTIFIISMYKDSQPRGMAVTISVKSEKISTLSSENKIISFKEMNPPDNIKDTKSDIIFFQRSVPGHDNKMQFESSSYEGYFLASEKERDLFKLILKKEDELGDRSIMFTVQNED
B3: IL-18 variant E6D, D54T, S55W, T63S, N91S, R104T (ligand)
chain: YFGKLDSKLSVIRNLNDQVLFIDQGNRPLFEDMTDSDMRDNAPRTIFIISMYKTWQPRGMAVSISVKSEKISTLSSENKIISFKEMNPPDSIKDTKSDIIFFQTSVPGHDNKMQFESSSYEGYFLASEKERDLFKLILKKEDELGDRSIMFTVQNED
B4: IL-18 variant G3L, E6Y, D54T, T63S, N91Y, R104Q (ligand)
chain: YFLKLYSKLSVIRNLNDQVLFIDQGNRPLFEDMTDSDMRDNAPRTIFIISMYKTSQPRGMAVSISVKSEKISTLSSENKIISFKEMNPPDYIKDTKSDIIFFQQSVPGHDNKMQFESSSYEGYFLASEKERDLFKLILKKEDELGDRSIMFTVQNED
B5: IL-18 variant G3P, E6K, D54Y, S55P, T63S, N91S, R104Q (ligand)
chain: YFPKLKSKLSVIRNLNDQVLFIDQGNRPLFEDMTDSDMRDNAPRTIFIISMYKYPQPRGMAVSISVKSEKISTLSSENKIISFKEMNPPDSIKDTKSDIIFFQQSVPGHDNKMQFESSSYEGYFLASEKERDLFKLILKKEDELGDRSIMFTVQNED
B6: IL-18 variant G3Q, E6N, D54Y, S55P, T63S, N91S, R104H (ligand)
chain: YFQKLNSKLSVIRNLNDQVLFIDQGNRPLFEDMTDSDMRDNAPRTIFIISMYKYPQPRGMAVSISVKSEKISTLSSENKIISFKEMNPPDSIKDTKSDIIFFQHSVPGHDNKMQFESSSYEGYFLASEKERDLFKLILKKEDELGDRSIMFTVQNED
B7: IL-18 variant G3P, E6H, N91L (ligand)
chain: YFPKLHSKLSVIRNLNDQVLFIDQGNRPLFEDMTDSDMRDNAPRTIFIISMYKDSQPRGMAVTISVKSEKISTLSSENKIISFKEMNPPDLIKDTKSDIIFFQRSVPGHDNKMQFESSSYEGYFLASEKERDLFKLILKKEDELGDRSIMFTVQNED
B8: IL-18 variant G3Q, E6Q, K53T, D54W, S55F, N91Y (ligand)
chain: YFQKLQSKLSVIRNLNDQVLFIDQGNRPLFEDMTDSDMRDNAPRTIFIISMYTWFQPRGMAVTISVKSEKISTLSSENKIISFKEMNPPDYIKDTKSDIIFFQRSVPGHDNKMQFESSSYEGYFLASEKERDLFKLILKKEDELGDRSIMFTVQNED
B9: IL-18 variant G3I, E6D, D54A, S55F, N91Y, R104H (ligand)
chain: YFIKLDSKLSVIRNLNDQVLFIDQGNRPLFEDMTDSDMRDNAPRTIFIISMYKAFQPRGMAVTISVKSEKISTLSSENKIISFKEMNPPDYIKDTKSDIIFFQHSVPGHDNKMQFESSSYEGYFLASEKERDLFKLILKKEDELGDRSIMFTVQNED
B10: IL-18 variant G3P, E6K, D54Y, S55P, Q56H, T63S, N91S, R104Q (ligand)
chain: YFPKLKSKLSVIRNLNDQVLFIDQGNRPLFEDMTDSDMRDNAPRTIFIISMYKYPHPRGMAVSISVKSEKISTLSSENKIISFKEMNPPDSIKDTKSDIIFFQQSVPGHDNKMQFESSSYEGYFLASEKERDLFKLILKKEDELGDRSIMFTVQNED
B11: IL-18 variant G3P, E6K, D54R, S55P, T63A, N91V (ligand)
chain: YFPKLKSKLSVIRNLNDQVLFIDQGNRPLFEDMTDSDMRDNAPRTIFIISMYKRPQPRGMAVAISVKSEKISTLSSENKIISFKEMNPPDVIKDTKSDIIFFQRSVPGHDNKMQFESSSYEGYFLASEKERDLFKLILKKEDELGDRSIMFTVQNED
B12: IL-18 variant G3Q, E6H, D54N, S55I, T63S, N91V (ligand)
chain: YFQKLHSKLSVIRNLNDQVLFIDQGNRPLFEDMTDSDMRDNAPRTIFIISMYKNIQPRGMAVSISVKSEKISTLSSENKIISFKEMNPPDVIKDTKSDIIFFQRSVPGHDNKMQFESSSYEGYFLASEKERDLFKLILKKEDELGDRSIMFTVQNED
B13: IL-18 variant G3L, E6S, D54T, T63S, N91Y, R104Q (ligand)
chain: YFLKLSSKLSVIRNLNDQVLFIDQGNRPLFEDMTDSDMRDNAPRTIFIISMYKTSQPRGMAVSISVKSEKISTLSSENKIISFKEMNPPDYIKDTKSDIIFFQQSVPGHDNKMQFESSSYEGYFLASEKERDLFKLILKKEDELGDRSIMFTVQNED
B14: IL-18 variant G3P, E6H, D54A, S55P, Q56K, T63S, N91M (ligand)
chain: YFPKLHSKLSVIRNLNDQVLFIDQGNRPLFEDMTDSDMRDNAPRTIFIISMYKAPKPRGMAVSISVKSEKISTLSSENKIISFKEMNPPDMIKDTKSDIIFFQRSVPGHDNKMQFESSSYEGYFLASEKERDLFKLILKKEDELGDRSIMFTVQNED
B15: IL-18 variant G3Q, E6G, D54N, S55H, T63V, N91M, R104T (ligand)
chain: YFQKLGSKLSVIRNLNDQVLFIDQGNRPLFEDMTDSDMRDNAPRTIFIISMYKNHQPRGMAVVISVKSEKISTLSSENKIISFKEMNPPDMIKDTKSDIIFFQTSVPGHDNKMQFESSSYEGYFLASEKERDLFKLILKKEDELGDRSIMFTVQNED
B16: IL-18 variant G3P, E6K, D54Y, S55P, T63S, N91S, R104Q, Q154R (ligand)
chain: YFPKLKSKLSVIRNLNDQVLFIDQGNRPLFEDMTDSDMRDNAPRTIFIISMYKYPQPRGMAVSISVKSEKISTLSSENKIISFKEMNPPDSIKDTKSDIIFFQQSVPGHDNKMQFESSSYEGYFLASEKERDLFKLILKKEDELGDRSIMFTVRNED

Columns and labels:
Experiment in all cases: cell-based or functional assay
[1] = biological target: T1, interleukin 18 binding protein (IL-18BP)
[2] = biological target: T2, IL-18 receptor (IL-18Rα and IL-18Rβ)
[3] = biological target: T1, interleukin 18 binding protein (IL-18BP); remark: listed apart in the source
[4] = biological target: T2, IL-18 receptor (IL-18Rα and IL-18Rβ); remark: listed apart in the source

| Binder | EC50 (pM) + 300 nM BP, HEK-blue re-screening [1] [pM] | Ratio (HEK-blue EC50, + 300 nM BP against - BP) [1] | EC50 (pM) - BP, HEK-blue re-screening [2] [pM] | EC50 (pM) + 100 nM BP, HEK-blue re-screening [3] [pM] | Ratio (HEK-blue EC50, + 100 nM BP against - BP) [3] | EC50 (pM) - BP, HEK-blue re-screening [4] [pM] |
| --- | --- | --- | --- | --- | --- | --- |
| B1 | 3.11 | 1.2 | 2.62 |  |  |  |
| B2 |  |  |  | 8.61 | 172 | 0.05 |
| B3 |  |  |  | 62.8 | 18.4 | 3.42 |
| B4 | 0.37 | 12.3 | 0.03 |  |  |  |
| B5 | 1.18 | 1.6 | 0.73 |  |  |  |
| B6 |  |  |  | 34.7 | 3.6 | 9.63 |
| B7 | 5.34 | 1.7 | 3.21 |  |  |  |
| B8 | 2.54 | 1.1 | 2.36 |  |  |  |
| B9 |  |  |  | 3.41 | 7.6 | 0.45 |
| B10 | 2.99 | 1.9 | 1.58 |  |  |  |
| B11 | 10.1 | 1.1 | 9.07 |  |  |  |
| B12 |  |  |  | 5.23 | 16.9 | 0.31 |
| B13 | 0.51 | 25.5 | 0.02 |  |  |  |
| B14 | 8.23 | 1.5 | 5.4 |  |  |  |
| B15 |  |  |  | 2.66 | 2.7 | 0.99 |
| B16 | 2.58 | 2.4 | 1.09 |  |  |  |

Source: US20240182536A1 (MURAL ONCOLOGY, published 2024)
